Assay results from patent US20170082633A1 (WHITEHEAD INSTITUTE FOR BIOMEDICAL RESEARCH, published 2017).
Each block holds one binder with its values, some of them ahead of it.

Columns and labels:
[1] = target: co-expressed epitope tagged Ragulator proteins (UniProt Q6IAA8 2-161; Q9Y2Q5 1-125; Q9UHA4 1-124; Q0VGL1 1-99; O43504 1-91); test: FLAG IP (FLAG-p14) from HEK-293T cells co-transfected with the HA-tagged Ragulator components and HA-SLC38A9.4; immunoblot
endogenous Ragulator = endogenous Ragulator (UniProt Q6IAA8 2-161; Q9Y2Q5 1-125; Q9UHA4 1-124; Q0VGL1 1-99; O43504 1-91); test: anti-FLAG co-immunoprecipitation from HEK-293T cells, immunoblot
Experimental: (§1) HEK-293T cells were cultured in DMEM supplemented with 10% inactivated fetal bovine serum, penicillin (100 IU/mL), and streptomycin (100 μg/mL) and maintained at 37° C. and 5% CO₂. Two million HEK-293T cells were plated in 10 cm culture dishes.
(§2) Transfection mixes were taken up to a total of 5 μg of DNA using empty pRK5. HEK-293T cells stably expressing FLAG-tagged proteins were rinsed once with ice-cold PBS and lysed in ice-cold lysis buffer (40 mM HEPES pH 7.4, 1% Triton X-100, 10 mM β-glycerol phosphate, 10 mM pyrophosphate, 2.5 mM MgC12 and 1 tablet of EDTA-free protease inhibitor (Roche) per 25 ml buffer). The soluble fractions from cell lysates were isolated by centrifugation at 13,000 rpm for 10 min in a microcentrifuge. […] Immunoprecipitates were washed three times with lysis buffer containing 500 mM NaCl. Immunoprecipitated proteins were denatured by the addition of 50 μL of sample buffer and incubation at RT for 30 min. It is critical that the samples containing SLC38A9 are neither boiled nor frozen prior to resolution by SDS-PAGE and analysis by immunoblotting. A similar protocol was employed when preparing samples for mass spectrometry.

endogenous RagA = target: T1, endogenous RagA (UniProt Q7L523 1-313); test: FLAG IP from transfected HEK-293T cells, immunoblot
T1 construct: Detected by immunoblot in anti-FLAG immunoprecipitates; also called RagA GTPase
T1 sequence (Q7L523 whole entry): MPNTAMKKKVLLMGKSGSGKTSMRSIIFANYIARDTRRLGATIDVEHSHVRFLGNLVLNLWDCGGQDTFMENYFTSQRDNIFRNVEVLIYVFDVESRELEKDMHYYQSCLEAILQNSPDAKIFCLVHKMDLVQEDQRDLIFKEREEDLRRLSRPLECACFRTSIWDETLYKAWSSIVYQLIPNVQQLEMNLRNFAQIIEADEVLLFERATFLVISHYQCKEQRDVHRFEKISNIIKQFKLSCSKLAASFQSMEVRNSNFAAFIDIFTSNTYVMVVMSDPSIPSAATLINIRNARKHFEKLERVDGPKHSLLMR
Experimental: as §1, §2

endogenous RagC = target: T2, endogenous RagC (UniProt Q9HB90 2-399); test: FLAG IP from HEK-293T cells stably expressing the bait, immunoblot
T2 construct: Detected by immunoblot in anti-FLAG immunoprecipitates; also called RagC GTPase
T2 sequence (Q9HB90 2-399 limits assumed): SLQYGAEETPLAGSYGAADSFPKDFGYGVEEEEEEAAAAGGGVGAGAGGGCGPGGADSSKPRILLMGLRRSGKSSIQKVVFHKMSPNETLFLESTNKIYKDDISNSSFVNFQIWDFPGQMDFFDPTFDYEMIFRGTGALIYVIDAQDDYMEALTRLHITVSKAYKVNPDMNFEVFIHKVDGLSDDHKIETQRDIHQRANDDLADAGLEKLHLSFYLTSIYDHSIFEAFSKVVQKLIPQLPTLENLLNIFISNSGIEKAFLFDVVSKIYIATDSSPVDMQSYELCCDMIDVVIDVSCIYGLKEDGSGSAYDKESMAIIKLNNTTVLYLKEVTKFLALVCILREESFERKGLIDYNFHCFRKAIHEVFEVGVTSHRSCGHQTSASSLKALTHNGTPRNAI
Experimental: as §2

endogenous p18 = target: T3, endogenous p18 (UniProt Q6IAA8 2-161); test: as above
T3 construct: Detected by immunoblot in anti-FLAG immunoprecipitates; also called LAMTOR1
Experimental: as §2

endogenous SLC38A9 = target: T4, endogenous SLC38A9 (human, UniProt Q8NBW4 1-561, limits assumed); test: FLAG IP from HEK-293T cells stably expressing the bait, - or + amino acids; immunoblot
T4 construct: Endogenous protein of HEK-293T cells, found by LC-MS-MS or immunoblot; also called SLC38A9 (NCBI Gene ID: 153129)
T4 sequence: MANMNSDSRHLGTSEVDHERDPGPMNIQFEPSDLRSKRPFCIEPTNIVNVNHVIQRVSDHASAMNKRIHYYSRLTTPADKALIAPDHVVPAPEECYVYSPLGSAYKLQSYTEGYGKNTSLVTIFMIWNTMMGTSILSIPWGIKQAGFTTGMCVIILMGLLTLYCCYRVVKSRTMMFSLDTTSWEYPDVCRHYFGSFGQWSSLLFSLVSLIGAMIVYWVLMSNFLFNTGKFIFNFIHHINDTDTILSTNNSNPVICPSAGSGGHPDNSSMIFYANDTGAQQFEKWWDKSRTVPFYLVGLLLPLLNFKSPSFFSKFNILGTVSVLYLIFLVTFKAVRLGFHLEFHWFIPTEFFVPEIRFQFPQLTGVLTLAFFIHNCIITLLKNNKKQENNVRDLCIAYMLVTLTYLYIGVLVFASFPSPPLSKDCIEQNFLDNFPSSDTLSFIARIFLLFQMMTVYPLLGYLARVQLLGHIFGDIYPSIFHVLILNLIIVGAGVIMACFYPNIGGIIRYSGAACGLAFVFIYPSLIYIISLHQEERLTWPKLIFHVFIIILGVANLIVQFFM

raptor = target: T5, raptor (human (HEK-293T cells), UniProt Q8N122); test: FLAG IP from transfected HEK-293T cells, immunoblot
T5 construct: endogenous; Named only on the sheet
T5 sequence (Q8N122 whole entry): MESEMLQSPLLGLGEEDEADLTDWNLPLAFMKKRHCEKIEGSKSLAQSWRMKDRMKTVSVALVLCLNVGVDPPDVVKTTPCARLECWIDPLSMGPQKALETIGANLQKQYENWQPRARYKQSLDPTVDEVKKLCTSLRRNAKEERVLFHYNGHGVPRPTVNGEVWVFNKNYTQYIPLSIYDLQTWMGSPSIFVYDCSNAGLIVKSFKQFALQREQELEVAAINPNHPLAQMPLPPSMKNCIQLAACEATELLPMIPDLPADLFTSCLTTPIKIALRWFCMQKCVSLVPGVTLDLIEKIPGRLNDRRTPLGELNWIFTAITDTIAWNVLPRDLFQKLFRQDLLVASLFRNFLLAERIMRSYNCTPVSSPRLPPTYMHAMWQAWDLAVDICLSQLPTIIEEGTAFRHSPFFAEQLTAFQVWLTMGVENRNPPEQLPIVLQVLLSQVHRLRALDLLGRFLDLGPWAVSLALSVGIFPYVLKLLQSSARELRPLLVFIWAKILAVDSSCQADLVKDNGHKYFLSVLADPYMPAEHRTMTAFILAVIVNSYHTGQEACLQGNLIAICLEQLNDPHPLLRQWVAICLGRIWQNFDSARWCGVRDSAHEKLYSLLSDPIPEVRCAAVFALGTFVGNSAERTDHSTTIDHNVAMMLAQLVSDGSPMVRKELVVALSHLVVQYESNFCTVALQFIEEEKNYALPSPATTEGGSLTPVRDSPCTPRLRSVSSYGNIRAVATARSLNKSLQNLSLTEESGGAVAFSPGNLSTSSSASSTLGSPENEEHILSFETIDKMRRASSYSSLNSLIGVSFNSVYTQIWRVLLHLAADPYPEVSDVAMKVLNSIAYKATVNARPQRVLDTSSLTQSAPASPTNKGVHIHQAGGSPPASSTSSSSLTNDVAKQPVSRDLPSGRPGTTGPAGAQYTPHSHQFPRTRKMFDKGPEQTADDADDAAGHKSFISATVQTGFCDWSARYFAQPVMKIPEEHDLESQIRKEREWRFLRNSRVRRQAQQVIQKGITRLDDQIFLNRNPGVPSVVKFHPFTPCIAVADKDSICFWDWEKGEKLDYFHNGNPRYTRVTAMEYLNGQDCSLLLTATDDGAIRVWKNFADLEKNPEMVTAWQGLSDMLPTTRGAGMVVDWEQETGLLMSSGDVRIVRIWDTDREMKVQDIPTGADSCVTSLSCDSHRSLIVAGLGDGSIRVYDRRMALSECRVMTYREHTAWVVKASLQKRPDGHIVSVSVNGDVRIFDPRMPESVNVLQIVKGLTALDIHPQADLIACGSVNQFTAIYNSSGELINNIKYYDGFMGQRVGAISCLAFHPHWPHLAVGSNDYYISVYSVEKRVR
Experimental: as §1, §2

B1: HA-SLC38A9.4 (other)
single chain: LVTIFMIWNTMMGTSILSIPWGIKQAGFTTGMCVIILMGLLTLYCCYRVVKSRTMMFSLDTTSWEYPDVCRHYFGSFGQWSSLLFSLVSLIGAMIVYWVLMSNFLFNTGKFIFNFIHHINDTDTILSTNNSNPVICPSAGSGGHPDNSSMIFYANDTGAQQFEKWWDKSRTVPFYLVGLLLPLLNFKSPSFFSKFNILGTVSVLYLIFLVTFKAVRLGFHLEFHWFIPTEFFVPEIRFQFPQLTGVLTLAFFIHNCIITLLKNNKKQENNVRDLCIAYMLVTLTYLYIGVLVFASFPSPPLSKDCIEQNFLDNFPSSDTLSFIARIFLLFQMMTVYPLLGYLARVQLLGHIFGDIYPSIFHVLILNLIIVGAGVIMACFYPNIGGIIRYSGAACGLAFVFIYPSLIYIISLHQEERLTWPKLIFHVFIIILGVANLIVQFFM
notes: also called HA-tagged SLC38A9 isoform 4
binding result [1]: no binding

B2: FLAG-N-terminal 119 fragment of SLC38A9.1 (other)
chain: DYKDDDDKMANMNSDSRHLGTSEVDHERDPGPMNIQFEPSDLRSKRPFCIEPTNIVNVNHVIQRVSDHASAMNKRIHYYSRLTTPADKALIAPDHVVPAPEECYVYSPLGSAYKLQSYTEGYGKNTS
binding result (endogenous Ragulator): binds | binding result (endogenous RagA): binds | binding result (endogenous RagC): binds | binding result (endogenous p18): binds

The remaining lines, values ahead:

binding result (endogenous Ragulator): binds
B3: FLAG-SLC38A9.1 (other)
chain: DYKDDDDKMANMNSDSRHLGTSEVDHERDPGPMNIQFEPSDLRSKRPFCIEPTNIVNVNHVIQRVSDHASAMNKRIHYYSRLTTPADKALIAPDHVVPAPEECYVYSPLGSAYKLQSYTEGYGKNTSLVTIFMIWNTMMGTSILSIPWGIKQAGFTTGMCVIILMGLLTLYCCYRVVKSRTMMFSLDTTSWEYPDVCRHYFGSFGQWSSLLFSLVSLIGAMIVYWVLMSNFLFNTGKFIFNFIHHINDTDTILSTNNSNPVICPSAGSGGHPDNSSMIFYANDTGAQQFEKWWDKSRTVPFYLVGLLLPLLNFKSPSFFSKFNILGTVSVLYLIFLVTFKAVRLGFHLEFHWFIPTEFFVPEIRFQFPQLTGVLTLAFFIHNCIITLLKNNKKQENNVRDLCIAYMLVTLTYLYIGVLVFASFPSPPLSKDCIEQNFLDNFPSSDTLSFIARIFLLFQMMTVYPLLGYLARVQLLGHIFGDIYPSIFHVLILNLIIVGAGVIMACFYPNIGGIIRYSGAACGLAFVFIYPSLIYIISLHQEERLTWPKLIFHVFIIILGVANLIVQFFM
notes: Lysosomal membrane amino acid transporter, expressed in HEK-293T cells and immunoprecipitated from Triton X-100 lysate with anti-FLAG gel; also called SLC38A9 isoform 1; full-length SLC38A9

binding result (endogenous SLC38A9): no binding | binding result (raptor): no binding
B4: FLAG-metap2 (enzyme)
chain: DYKDDDDKMAGVEEVAASGSHLNGDLDPDDREEGAASTAEEAAKKKRRKKKKSKGPSAAGEQEPDKESGASVDEVARQLERSALEDKERDEDDEDGDGDGDGATGKKKKKKKKKRGPKVQTDPPSVPICDLYPNGVFPKGQECEYPPTQDGRTAAWRTTSEEKKALDQASEEIWNDFREAAEAHRQVRKYVMSWIKPGMTMIEICEKLEDCSRKLIKENGLNAGLAFPTGCSLNNCAAHYTPNAGDTTVLQYDDICKIDFGTHISGRIIDCAFTVTFNPKYDTLLKAVKDATNTGIKCAGIDVRLCDVGEAIQEVMESYEVEIDGKTYQVKPIRNLNGHSIGQYRIHAGKTVPIVKGGEATRMEEGEVYAIETFGSTGKGVVHDDMECSHYMKNFDVGHVPIRLPRTKHLLNVINENFGTLAFCRRWLDRLGESKYLMALKNLCDLGIVDPYPPLCDIKGSYTAQFEHTILLRPTCKEVVSRGDDY
notes: Control bait; also called control protein Metap2
